Test results reported in the DeepSol protein solubility set.

Test: soluble on expression in E. coli; label from the status in PepcDB or PDB records

Sequence | soluble on expression in E. coli
GHMLVMRPAQAADLPQVQRLAADSPVGVTSLPDDAERLRDKILASEASFAAEVSYNGEESYFFVLEDSASGELVGCSAIVASAGFSEPFYSFRNETFVHASRSLSIHNKIHVLSLCHDLTGNSLLTSFYVQRDLVQSVYAELNSRGRLLFMASHPERFADAVVVEIVGYSDEQGESPFWNAVGRNFFDLNYIEAEKLSGLKSRTFLAELMPHYPIYVPLLPDAAQESMGQVHPRAQITFDILMREGFETDNYIDIFDGGPTLHARTSGIRSIAQSRVVPVKIGEAPKSGRPYLVTNGQLQDFRAVVLDLDWAPGKPVALSVEAAEALGVGEGASVRLVAVGS | soluble
MARARKGALVQCDPSIKALILQIDAKMSDIVLEELDDTHLLVNPSKVEFVKHELNRLLSKNIYNPMDEEENQ | soluble
MASKRLGKQTVMLQNPPRITSTASIVGPKEGKGPLRLFFDNIIEDEMWGEKSWEKAESKLIRETFSKVLQKGNKTSQEIDYVISGDLLNQCIAANFGLRESDVPFFGVYGACSTIAESMSIGAMLVDGGFADNVVCITSSHFCSAEKQFRFPLELGTQRPPSAQWTVTGSGGVLISNDGSGPYITHITTGKIVDMGIKDANNMGAAMAPAAVDTIVTHFKDTGFTPESYDLILTGDLGAIGREICVELTREQGFNIENIYNDCGLMIYDREKQDTHAGGSGCGCAATVFAGFVYKKLMDGTLKNVLFVATGALLSPVSTQQGESIPSIAHAISITTSPER | soluble
MYINNKLTEDLLLGEIYYLISKTYFFIENIQKAINFAFLAKSEFEKVYNKKAYAKSLELLAEEHAKVGDLESAIAYSKQSLNVYKELEQLDKISSIEDSLGKLFFEFDNIEESFEHYNRAIKIREENTDSKLLDTLFNLCENHIKTKNMNKCIEILNEIKNKLNVSDVNRLIEYKILTFRIEVLQNNIKEAENILLDTLEIAKRNDMKKKEADISIRLGKFYLELKRDYEAAKYLDKGINNLKNLGVIKSLEHHHHHH | not soluble
MAHHHHHHMALPPATLQSPAVPDGQQHLGCSGGSGHLSVAALDQSRTPLYSAERRASLCDESGALAAVSLSADASRPTAANFVKGELIGKGSYGAVYRGMQRSNNRIIAMKEIRLPGVVEQQLRQSEKLAATAASPAGVSSPVLPASNSVKGESALAKEVAAIKRELTLLKQLNHPNIVRYLNDEVVDGTLRIYMDYVSGGSVTAALKSYGSFEEPQAAALCFQLLQGLVYMHRRGIIHRDLKGDNLLLETSSQLKIADLGTAKSIFSSATMTTSIVGTAYFMAPEVLQPSGAAVGTAADIWSVGCCLIEMMTGKPPLSDLPNQFTVMMAIGGSATVPLDKYIPADNTWSDEVLDFISQCLRANPAQRPTAVDLLQHSWFAKFLNVMHAPSMSTPATLDSMLTPTAPPIERPFTLSPQRQMVSPICSPNLTAALTPGYAGPQYSSGQPESSASSHTSRERKGKRDKRVSARRHARYSTSGATSATSRRSQESSQASTPQYSSGTRTRDGSAQSASLPRSHSHPGRQQGPSSKRRAHAHIVGHGLPRDDSRQSFSSEQAMPQHTCTPGSGGAGDGSGENKTKTAFLPAITHNGSVAPSPCGYSLDVSRCSRSLKNSGSSREPTKACLYTTDTENKS | not soluble
MSSSIREEVHRHLGTVALMQPALHQQTHAPAPTEITHTLFRAYTRVPHDVGGEADVPIEYHEKEEEIWELNTFATCECLAWRGVWTAEERRRKQNCDVGQTVYLGMPYYGRWLLTAARILVDKQFVTLTELHNKIVEMRERVASGQGLGEYLPPKAK | soluble
MATRLLRTNFIRRSYRLPAFSPVGPPTVTASTAVVPEILSFGQQAPEPPLHHPKPTEQSHDGLDLSDQARLFSSIPTSDLLRSTAVLHAAAIGPMVDLGTWVMSSKLMDASVTRGMVLGLVKSTFYDHFCAGEDADAAAERVRSVYEATGLKGMLVYGVEHADDAVSCDDNMQQFIRTIEAAKSLPTSHFSSVVVKITAICPISLLKRVSDLLRWEYKSPNFKLSWKLKSFPVFSESSPLYHTNSEPEPLTAEEERELEAAHGRIQEICRKCQESNVPLLIDAEDTILQPAIDYMAYSSAIMFNADKDRPIVYNTIQAYLRDAGERLHLAVQNAEKENVPMGFKLVRGAYMSSEASLADSLGCKSPVHDTIQDTHSCYNDCMTFLMEKASNGSGFGVVLATHNADSGRLASRKASDLGIDKQNGKIEFAQLYGMSDALSFGLKRAGFNVSKYMPFGPVATAIPYLLRRAYENRGMMATGAHDRQLMRMELKRRLIAGIA | not soluble
